Here are results for 8 molecules from patent publication US20230416330A1, “Optimized GIP Peptide Analogues” (Antag Therapeutics ApS, priority 2019, published 2023).

Starred links: 1 amine or outer side, 2 acyl side, 3 side chain; linkers in the order of their positions; H or OH if unused. Non-standard residues stand in square brackets, D forms with d. Groups on a side chain read outwards from the residue. No end group written: not given here. *: point of attachment. C16 diacid = O=C(O)CCCCCCCCCCCCCCC(=O)*; γGlu = O=C(O)[C@H](CCC(=O)[*:2])N[*:1]; Aib = CC(C)(N)C(=O)O

The experiment addresses T1, human GIP receptor (human, UniProt P48546 22-466).
T1 sequence (looked up): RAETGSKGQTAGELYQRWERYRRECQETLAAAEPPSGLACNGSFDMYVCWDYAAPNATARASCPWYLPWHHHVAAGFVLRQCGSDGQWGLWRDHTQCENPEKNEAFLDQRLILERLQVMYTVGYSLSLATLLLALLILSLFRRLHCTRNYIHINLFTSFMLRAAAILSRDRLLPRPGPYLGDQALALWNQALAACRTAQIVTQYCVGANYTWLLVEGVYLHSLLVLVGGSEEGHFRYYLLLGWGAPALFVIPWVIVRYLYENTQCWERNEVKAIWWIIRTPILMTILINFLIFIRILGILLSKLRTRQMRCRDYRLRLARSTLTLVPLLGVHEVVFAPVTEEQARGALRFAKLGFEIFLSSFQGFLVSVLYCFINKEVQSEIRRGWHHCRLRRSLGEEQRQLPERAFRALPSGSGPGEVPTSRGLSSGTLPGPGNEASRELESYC
The experiment is described as follows: cell-based or functional assay.

B1: AT721 (peptide)
peptide: EGTFISEYSI[Aib]LEKIK([γGlu-C16 diacid])QQEFVEWLLAQKPSSGAPPPS-OH
modifications: N-terminus assumed
SMILES: CC[C@H](C)[C@H](NC(=O)[C@H](CCCCN)NC(=O)[C@H](CCC(=O)O)NC(=O)[C@H](CC(C)C)NC(=O)C(C)(C)NC(=O)[C@@H](NC(=O)[C@H](CO)NC(=O)[C@H](Cc1ccc(O)cc1)NC(=O)[C@H](CCC(=O)O)NC(=O)[C@H](CO)NC(=O)[C@@H](NC(=O)[C@H](Cc1ccccc1)NC(=O)[C@@H](NC(=O)CNC(=O)[C@@H](N)CCC(=O)O)[C@@H](C)O)[C@@H](C)CC)[C@@H](C)CC)C(=O)N[C@@H](CCCCNC(=O)CC[C@H](NC(=O)CCCCCCCCCCCCCCC(=O)O)C(=O)O)C(=O)N[C@@H](CCC(N)=O)C(=O)N[C@@H](CCC(N)=O)C(=O)N[C@@H](CCC(=O)O)C(=O)N[C@@H](Cc1ccccc1)C(=O)N[C@H](C(=O)N[C@@H](CCC(=O)O)C(=O)N[C@@H](Cc1c[nH]c2ccccc12)C(=O)N[C@@H](CC(C)C)C(=O)N[C@@H](CC(C)C)C(=O)N[C@@H](C)C(=O)N[C@@H](CCC(N)=O)C(=O)N[C@@H](CCCCN)C(=O)N1CCC[C@H]1C(=O)N[C@@H](CO)C(=O)N[C@@H](CO)C(=O)NCC(=O)N[C@@H](C)C(=O)N1CCC[C@H]1C(=O)N1CCC[C@H]1C(=O)N1CCC[C@H]1C(=O)N[C@@H](CO)C(=O)O)C(C)C
Consider B1, for which the “nM (Kb, Gaddum assay, cAMP)” value stood at 0.31 nM and the “pKb (Gaddum assay, cAMP)” value was 9.5.

B2: AT725 (peptide)
peptide: EGTFISEYSI[Aib]LEKIK([Ala-Glu-Leu-Ala-C16 diacid])QQEFVEWLLAQKPSSGAPPPS-OH
For the molecule B2, the “nM (Kb, Gaddum assay, cAMP)” value stood at 0.6 nM and the “pKb (Gaddum assay, cAMP)” value turned out to be 9.2.

B3: AT742 (peptide)
peptide: EGTFISDYSIAMDKK(C16 diacid)HQQDFVEWLLAQKPSSGAPPPS-OH
modifications: N-terminus assumed
SMILES: CC[C@H](C)[C@H](NC(=O)[C@H](CO)NC(=O)[C@H](Cc1ccc(O)cc1)NC(=O)[C@H](CC(=O)O)NC(=O)[C@H](CO)NC(=O)[C@@H](NC(=O)[C@H](Cc1ccccc1)NC(=O)[C@@H](NC(=O)CNC(=O)[C@@H](N)CCC(=O)O)[C@@H](C)O)[C@@H](C)CC)C(=O)N[C@@H](C)C(=O)N[C@@H](CCSC)C(=O)N[C@@H](CC(=O)O)C(=O)N[C@@H](CCCCN)C(=O)N[C@@H](CCCCNC(=O)CCCCCCCCCCCCCCC(=O)O)C(=O)N[C@@H](Cc1c[nH]cn1)C(=O)N[C@@H](CCC(N)=O)C(=O)N[C@@H](CCC(N)=O)C(=O)N[C@@H](CC(=O)O)C(=O)N[C@@H](Cc1ccccc1)C(=O)N[C@H](C(=O)N[C@@H](CCC(=O)O)C(=O)N[C@@H](Cc1c[nH]c2ccccc12)C(=O)N[C@@H](CC(C)C)C(=O)N[C@@H](CC(C)C)C(=O)N[C@@H](C)C(=O)N[C@@H](CCC(N)=O)C(=O)N[C@@H](CCCCN)C(=O)N1CCC[C@H]1C(=O)N[C@@H](CO)C(=O)N[C@@H](CO)C(=O)NCC(=O)N[C@@H](C)C(=O)N1CCC[C@H]1C(=O)N1CCC[C@H]1C(=O)N1CCC[C@H]1C(=O)N[C@@H](CO)C(=O)O)C(C)C
With B3, the “nM (Kb, Gaddum assay, cAMP)” value was found to be 32 nM and the “pKb (Gaddum assay, cAMP)” value was 7.5.

B4: AT724 (peptide)
peptide: EGTFISEYSI[Aib]LEKIK([Lys-Ala-Ala-Ala-Glu-Lys-Ala-Ala-Ala-Glu-Lys-Ala-Ala-Ala-Glu-C16 diacid])QQEFVEWLLAQKPSSGAPPPS-OH
modifications: not fully specified
In the case of B4, the “nM (Kb, Gaddum assay, cAMP)” value is 0.31 nM and the “pKb (Gaddum assay, cAMP)” value amounted to 9.5.

B5: AT741 (peptide)
peptide: EGTFISDYSIAMDK(C16 diacid)IHQQDFVEWLLAQKPSSGAPPPS-OH
modifications: N-terminus assumed
SMILES: CC[C@H](C)[C@H](NC(=O)[C@H](CO)NC(=O)[C@H](Cc1ccc(O)cc1)NC(=O)[C@H](CC(=O)O)NC(=O)[C@H](CO)NC(=O)[C@@H](NC(=O)[C@H](Cc1ccccc1)NC(=O)[C@@H](NC(=O)CNC(=O)[C@@H](N)CCC(=O)O)[C@@H](C)O)[C@@H](C)CC)C(=O)N[C@@H](C)C(=O)N[C@@H](CCSC)C(=O)N[C@@H](CC(=O)O)C(=O)N[C@@H](CCCCNC(=O)CCCCCCCCCCCCCCC(=O)O)C(=O)N[C@H](C(=O)N[C@@H](Cc1c[nH]cn1)C(=O)N[C@@H](CCC(N)=O)C(=O)N[C@@H](CCC(N)=O)C(=O)N[C@@H](CC(=O)O)C(=O)N[C@@H](Cc1ccccc1)C(=O)N[C@H](C(=O)N[C@@H](CCC(=O)O)C(=O)N[C@@H](Cc1c[nH]c2ccccc12)C(=O)N[C@@H](CC(C)C)C(=O)N[C@@H](CC(C)C)C(=O)N[C@@H](C)C(=O)N[C@@H](CCC(N)=O)C(=O)N[C@@H](CCCCN)C(=O)N1CCC[C@H]1C(=O)N[C@@H](CO)C(=O)N[C@@H](CO)C(=O)NCC(=O)N[C@@H](C)C(=O)N1CCC[C@H]1C(=O)N1CCC[C@H]1C(=O)N1CCC[C@H]1C(=O)N[C@@H](CO)C(=O)O)C(C)C)[C@@H](C)CC
Regarding B5, the “nM (Kb, Gaddum assay, cAMP)” value came to 11 nM and the “pKb (Gaddum assay, cAMP)” value is 7.9.

B6: AT740 (peptide)
peptide: EGTFISDYSIK(C16 diacid)MDKIHQQDFVEWLLAQKPSSGAPPPS-OH
modifications: N-terminus assumed
SMILES: CC[C@H](C)[C@H](NC(=O)[C@H](CCCCN)NC(=O)[C@H](CC(=O)O)NC(=O)[C@H](CCSC)NC(=O)[C@H](CCCCNC(=O)CCCCCCCCCCCCCCC(=O)O)NC(=O)[C@@H](NC(=O)[C@H](CO)NC(=O)[C@H](Cc1ccc(O)cc1)NC(=O)[C@H](CC(=O)O)NC(=O)[C@H](CO)NC(=O)[C@@H](NC(=O)[C@H](Cc1ccccc1)NC(=O)[C@@H](NC(=O)CNC(=O)[C@@H](N)CCC(=O)O)[C@@H](C)O)[C@@H](C)CC)[C@@H](C)CC)C(=O)N[C@@H](Cc1c[nH]cn1)C(=O)N[C@@H](CCC(N)=O)C(=O)N[C@@H](CCC(N)=O)C(=O)N[C@@H](CC(=O)O)C(=O)N[C@@H](Cc1ccccc1)C(=O)N[C@H](C(=O)N[C@@H](CCC(=O)O)C(=O)N[C@@H](Cc1c[nH]c2ccccc12)C(=O)N[C@@H](CC(C)C)C(=O)N[C@@H](CC(C)C)C(=O)N[C@@H](C)C(=O)N[C@@H](CCC(N)=O)C(=O)N[C@@H](CCCCN)C(=O)N1CCC[C@H]1C(=O)N[C@@H](CO)C(=O)N[C@@H](CO)C(=O)NCC(=O)N[C@@H](C)C(=O)N1CCC[C@H]1C(=O)N1CCC[C@H]1C(=O)N1CCC[C@H]1C(=O)N[C@@H](CO)C(=O)O)C(C)C
In the case of B6, the “nM (Kb, Gaddum assay, cAMP)” value is 14 nM and the “pKb (Gaddum assay, cAMP)” value worked out at 7.9.

B7: AT722 (peptide)
peptide: EGTFISEYSI[Aib]LEKIK([Ser-Gly-Gly-Gly-Gly-C16 diacid])QQEFVEWLLAQKPSSGAPPPS-OH
modifications: N-terminus assumed
SMILES: CC[C@H](C)[C@H](NC(=O)[C@H](CCCCN)NC(=O)[C@H](CCC(=O)O)NC(=O)[C@H](CC(C)C)NC(=O)C(C)(C)NC(=O)[C@@H](NC(=O)[C@H](CO)NC(=O)[C@H](Cc1ccc(O)cc1)NC(=O)[C@H](CCC(=O)O)NC(=O)[C@H](CO)NC(=O)[C@@H](NC(=O)[C@H](Cc1ccccc1)NC(=O)[C@@H](NC(=O)CNC(=O)[C@@H](N)CCC(=O)O)[C@@H](C)O)[C@@H](C)CC)[C@@H](C)CC)C(=O)N[C@@H](CCCCNC(=O)[C@H](CO)NC(=O)CNC(=O)CNC(=O)CNC(=O)CNC(=O)CCCCCCCCCCCCCCC(=O)O)C(=O)N[C@@H](CCC(N)=O)C(=O)N[C@@H](CCC(N)=O)C(=O)N[C@@H](CCC(=O)O)C(=O)N[C@@H](Cc1ccccc1)C(=O)N[C@H](C(=O)N[C@@H](CCC(=O)O)C(=O)N[C@@H](Cc1c[nH]c2ccccc12)C(=O)N[C@@H](CC(C)C)C(=O)N[C@@H](CC(C)C)C(=O)N[C@@H](C)C(=O)N[C@@H](CCC(N)=O)C(=O)N[C@@H](CCCCN)C(=O)N1CCC[C@H]1C(=O)N[C@@H](CO)C(=O)N[C@@H](CO)C(=O)NCC(=O)N[C@@H](C)C(=O)N1CCC[C@H]1C(=O)N1CCC[C@H]1C(=O)N1CCC[C@H]1C(=O)N[C@@H](CO)C(=O)O)C(C)C
For the molecule B7, the “nM (Kb, Gaddum assay, cAMP)” value is 0.28 nM and the “pKb (Gaddum assay, cAMP)” value stood at 9.6.

B8: AT739 (peptide)
peptide: EGTFISDYSK(C16 diacid)AMDKIHQQDFVEWLLAQKPSSGAPPPS-OH
modifications: N-terminus assumed
SMILES: CC[C@H](C)[C@H](NC(=O)[C@H](CCCCN)NC(=O)[C@H](CC(=O)O)NC(=O)[C@H](CCSC)NC(=O)[C@H](C)NC(=O)[C@H](CCCCNC(=O)CCCCCCCCCCCCCCC(=O)O)NC(=O)[C@H](CO)NC(=O)[C@H](Cc1ccc(O)cc1)NC(=O)[C@H](CC(=O)O)NC(=O)[C@H](CO)NC(=O)[C@@H](NC(=O)[C@H](Cc1ccccc1)NC(=O)[C@@H](NC(=O)CNC(=O)[C@@H](N)CCC(=O)O)[C@@H](C)O)[C@@H](C)CC)C(=O)N[C@@H](Cc1c[nH]cn1)C(=O)N[C@@H](CCC(N)=O)C(=O)N[C@@H](CCC(N)=O)C(=O)N[C@@H](CC(=O)O)C(=O)N[C@@H](Cc1ccccc1)C(=O)N[C@H](C(=O)N[C@@H](CCC(=O)O)C(=O)N[C@@H](Cc1c[nH]c2ccccc12)C(=O)N[C@@H](CC(C)C)C(=O)N[C@@H](CC(C)C)C(=O)N[C@@H](C)C(=O)N[C@@H](CCC(N)=O)C(=O)N[C@@H](CCCCN)C(=O)N1CCC[C@H]1C(=O)N[C@@H](CO)C(=O)N[C@@H](CO)C(=O)NCC(=O)N[C@@H](C)C(=O)N1CCC[C@H]1C(=O)N1CCC[C@H]1C(=O)N1CCC[C@H]1C(=O)N[C@@H](CO)C(=O)O)C(C)C
On to B8, for which the “nM (Kb, Gaddum assay, cAMP)” value came out at 11 nM and the “pKb (Gaddum assay, cAMP)” value amounted to 7.9.
